Changes are numbered by the printed parent chain. Names and notes keep the numbering of the source. Values joined by “and” are separate entries in the source; they are usually repeats but may differ in a detail not shown here. Identical values can stand only once.
B1: wildtype (WT) σNS (mammalian orthoreovirus, strain type 3 Dearing) (natural protein)
chain: MASSLRAAISKIKRDDVGQQVCPNYVMLRSSVTTKVVRNVVEYQIRTGGFFSCLAMLRPLQYAKRERLLGQRNLERISTRDILQTRDLHSLCMPTPDAPMSNHQASTMRELICSYFKVDHADGLKYIPMDERYSPSSLARLFTMGMAGLHITTEPSYKRVPIMHLAADLDCMTLALPYMITLDGDTVVPVAPTLSAEQLLDDGLKGLACMDISYGCEVDANSRPAGDQSMDSSRCINELYCEETAEAICVLKTCLVLNCMQFKLEMDDLAHNAAELDKIQMMIPFSERVFRMASSFATIDAQCFRFCVMMKDKNLKIDMRETTRLWTRSASDDSVATSSLSISLDRGRWVAADASDARLLVFPIRV
notes: σNS nonstructural protein of mammalian orthoreovirus, strain type 3 Dearing; synthesized gene in pET28; source: E. coli DE3 cells, purified (Ni-NTA, TEV cleavage, Q column, S200 SEC); not shown: His tag, N-terminal, cleaved
B2: σNS-R6A (native, without Se-Met substitution) (natural protein)
chain: B1 chain with R6A
notes: σNS nonstructural protein of mammalian orthoreovirus, strain type 3 Dearing, with R6A; synthesized gene in pET28; Dimer in solution (~80 kDa); The N-terminal arm is disordered in the crystal with bile acid derivatives; also called native σNS-R6A; σNS R6A mutant; source: E. coli DE3 cells, purified (Ni-NTA, TEV cleavage, Q column, S200 SEC); not shown: His tag, N-terminal, cleaved
B3: selenomethionine (Se-Met)-substituted σNS-R6A (natural protein)
chain: B1 chain with R6A
modifications: selenomethionine in place of methionine (Se-Met-substituted; Mse 1 named)
notes: σNS nonstructural protein of mammalian orthoreovirus, strain type 3 Dearing, with R6A; synthesized gene in pET28; Octamer by SEC; helical assembly of dimers in the crystal; Residue 1 (Mse 1) is seen in the structure; also called Se-Met σNS-R6A; source: E. coli B834 cells in medium with Se-Met, purified (Ni-NTA, TEV cleavage, Q column, S200 SEC); not shown: His tag, N-terminal, cleaved
B4: σNS-ΔN17 (σNS lacking the N-terminal 17 residues) (domain or fragment)
chain: GQQVCPNYVMLRSSVTTKVVRNVVEYQIRTGGFFSCLAMLRPLQYAKRERLLGQRNLERISTRDILQTRDLHSLCMPTPDAPMSNHQASTMRELICSYFKVDHADGLKYIPMDERYSPSSLARLFTMGMAGLHITTEPSYKRVPIMHLAADLDCMTLALPYMITLDGDTVVPVAPTLSAEQLLDDGLKGLACMDISYGCEVDANSRPAGDQSMDSSRCINELYCEETAEAICVLKTCLVLNCMQFKLEMDDLAHNAAELDKIQMMIPFSERVFRMASSFATIDAQCFRFCVMMKDKNLKIDMRETTRLWTRSASDDSVATSSLSISLDRGRWVAADASDARLLVFPIRV
notes: σNS nonstructural protein of mammalian orthoreovirus, strain type 3 Dearing, truncated by the N-terminal 17 residues; synthesized gene in pET28; Dimer in solution and in the crystal; source: E. coli DE3 cells, purified (Ni-NTA, TEV cleavage, Q column, S200 SEC); not shown: His tag, N-terminal, cleaved

Tests used:
[1] = biological target: the molecule itself; assay: SEC; S200 16/60-increase column, 10 mM HEPES (pH 8.0), 150 mM NaCl, after anion-exchange chromatography; size of the oligomer from the elution volume
[2] = biological target: the molecule itself; assay: not stated; in solution; the method is not named for this construct (the constructs were purified on an S200 16/60-increase column)

Row | Protein | stoichiometry N [1] | stoichiometry N [2]
1 | B1 | 10 and 8 | –
2 | B2 | 2 | –
3 | B3 | 8 | –
4 | B4 | – | 2

Source: PMC10950856, “Structure of orthoreovirus RNA chaperone σNS, a component of viral replication factories” (Nature Communications, 2024)
